Where “and” joins values, the source holds several entries; their conditions need not be identical. Equal entries are not always repeated.
Assays:
[1] = Phase II: repeat-dose MTD in mice; format: in vivo; conditions: mouse, in vivo; female NOD/SCID mice, IV; MTD not reached at 10 mg/kg
Experimental: (§1) LD-5-(mc-vc-PABC)-MMAE (10 mg/kg; determined by the results by Phase I) was administered IV once weekly on days 1 and 8 to groups of 3 female NOD/SCID mice (23±3 g). […] Body weights were recorded pre-dose and on days 1, 4, 8, 12 and 15. The animals were observed and mortality noted daily after first compound administration for 15 days. Gross necropsy was performed on all animals without tissue collection.
(§2) Therefore, the MTD was not reached at this dose. With the corresponding ADCs bearing MMAE the MTD has been considerably lower.

female NOD/SCID mice [2] = assay: Phase II: repeat-dose MTD in mice; format: in vivo; conditions: for Body Weight: listed as LHRHD-(mc-vc-PABC)-MMAE, 10 mg/kg
Experimental: as §1, §2

female NOD/SCID mice [3] = assay: Phase I: single-dose MTD in mice; format: in vivo; conditions: for Body Weight: individual animals
Experimental: LD5-(mc-vc-PABC)-MMAE was administered IV to groups of 3 female NOD/SCID mice (23±3 g). Animals received an initial dose of 3 mg/kg. If the animals survived for 72 hours, the dose for the next cohort was increased. If one or more animals died, the dose for the next cohort was decreased. The testing stopped when all animals survived at the upper bound, or when two or three dose levels had been tested or when the upper or lower bound had been reached. […] Body weights were recorded pre-dose and at 72 hours after treatment. The animals were observed and mortality noted daily after compound administration for 3 days. Gross necropsy was performed on all animals without tissue collection. […] No mortality and body weight changes were noted, signifying the dose level was tolerated (Tables 2 and 3). The dose at 10 mg/kg was then determined for the following repeat-dose MTD study (Phase II).

[4] = In vitro metabolic stability (release of free MMAE, LC/MS), human plasma; format: in vitro ADME; conditions: 1 μM, 37° C., 10 days
Experimental: (§3) FIG. 11: Stability of LHRHD-(mc-vc-PABC)-MMAE (i.e. LD5-mc-vc-PABC-MMAE) in human plasma, mouse plasma, and cell culture media (c-media). The stability was measured based on the presence of free MMAE detected in the samples by LC-MS at each time point relative to time 0. Error Bars are standard deviations (STDV), p>0.05 and n=9 (mean is calculated from samples in triplicate in 3 independent experiments).
(§4) The metabolic stability of LD5-(mc-vc-PABC)-MMAE was investigated in cell culture media (c-media), human and mouse plasma. An LC/MS method was developed to detect both free MMAE and the presence of any degraded species from the whole construct, LD5-(mc-vc-PABC)-MMAE. To evaluate the stability of the valine-citrulline linkage, LD5-(mc-vc-PABC)-MMAE at 1 μM was incubated in c-media, human and mouse plasma at 37° C. for a period of 10 days. Aliquots were taken at pre-determined time intervals (t=0, 1, 2, 4, 7, 10 days) and analysed by LC/MS for the release of free MMAE.

female NOD/SCID mice [5] = assay: Phase I: single-dose MTD in mice; format: in vivo; conditions: IV 10 mg/kg, 72 hr, individual animals, listed as LHRHD-(mc-vc-PABC)-MMAE
[6] = In vitro stability (release of free MMAE, LC/MS), cell culture media; format: in vitro ADME; conditions: c-media, 1 μM, 37° C., 10 days
Experimental: as §3, §4

MDA-MB-231 = assay: In vitro uptake in TNBC cells versus normal breast cells (confocal LSM); format: cell-based, human; conditions: 1 μM, 18 h; MDA-MB-231 compared to normal breast cells (MCF-10A and HMEC)
Experimental: FIGS. 7A and 7B: In vitro uptake study of LD5-me-vc-PABC-MMAE in TNBC cell line and normal breast cells. (A) MDA-MB-231 as a TNBC cell model, MCF-10A and HMEC as normal breast cells were treated with 1 μM of LD5-me-vc-PABC-MMAE (LM) for 18 h. LM was stained using monoclonal primary antibody specific for LHRH and secondary antibody conjugated with Rhodamine and detected by LEICA SPE2 confocal LSM. (B) The LM signal intensity was measured by Fiji J software in normal breast cells (HMEC and MCF-10A) and TNBC cell model (MDA-MB-231). […] The signal intensity in these cell lines were assessed by one-way ANOVA followed by Tukey's multiple comparisons test (****p<0.0001). Error bars are standard deviations (STDV), n=8 (3 independent repeats).
The uptake of LD5-me-vc-PABC-MMAE by TNBC cells was examined using the TNBC cell line (MDA-MB-231) which overexpresses LHRH-R. The uptake was compared with normal breast cells (LHRH-R negative control). LD5-me-vc-PABC-MMAE was incubated with […] for 18 h, and intracellular uptake of the conjugate was monitored using confocal LSM (FIG. 7A).
This was supported by quantitative comparisons of the intracellular uptake of LD5-mc-vc-PABC-MMAE in LHRH-R positive and negative cells (FIG. 7B).

SMILES: CCNC(=O)[C@@H]1CCCN1C(=O)[C@H](CCCNC(=N)N)NC(=O)[C@H](CC(C)C)NC(=O)[C@@H](CCCCNC1CC(=O)N(CCCCCC(=O)N[C@H](C(=O)N[C@@H](CCCNC(N)=O)C(=O)Nc2ccc(COC(=O)N(C)[C@H](C(=O)N[C@H](C(=O)N(C)[C@@H]([C@@H](C)CC)[C@@H](CC(=O)N3CCC[C@H]3[C@H](OC)[C@@H](C)C(=O)N[C@H](C)[C@@H](O)c3ccccc3)OC)C(C)C)C(C)C)cc2)C(C)C)C1=O)NC(=O)[C@H](Cc1ccc(O)cc1)NC(=O)[C@H](CO)NC(=O)[C@H](Cc1c[nH]c2ccccc12)NC(=O)[C@H](Cc1c[nH]cn1)NC(=O)[C@@H]1CCC(=O)N1 (some centres unmarked) [LD5-mc-vc-PABC-MMAE]
- MTD [1]: > 10 mg/kg
- adverse effects (acute toxic symptoms, autonomic effects) (female NOD/SCID mice [2]; 10 mg/kg IV, after first and second administrations on Day 1 and 8): No marked adverse effects
- Mortality (death/test) (female NOD/SCID mice [2]; IV 10 mg/kg on days 1 and 8, Day 1): 0/3
- Body Weight (female NOD/SCID mice [2]; IV 10 mg/kg on days 1 and 8, Day 1, individual animals): 22 g (2×) and 21 g
- Mortality (death/test) (female NOD/SCID mice [2]; IV 10 mg/kg on days 1 and 8, Day 2): 0/3
- Mortality (death/test) (female NOD/SCID mice [2]; IV 10 mg/kg on days 1 and 8, Day 3): 0/3
- Mortality (death/test) (female NOD/SCID mice [2]; IV 10 mg/kg on days 1 and 8, Day 4): 0/3
- Body Weight (female NOD/SCID mice [2]; IV 10 mg/kg on days 1 and 8, Day 4, individual animals): 23 g (2×) and 22 g
- Mortality (death/test) (female NOD/SCID mice [2]; IV 10 mg/kg on days 1 and 8, Day 5): 0/3
- Mortality (death/test) (female NOD/SCID mice [2]; IV 10 mg/kg on days 1 and 8, Day 6): 0/3
- Mortality (death/test) (female NOD/SCID mice [2]; IV 10 mg/kg on days 1 and 8, Day 7): 0/3
- Mortality (death/test) (female NOD/SCID mice [2]; IV 10 mg/kg on days 1 and 8, Day 8): 0/3
- Body Weight (female NOD/SCID mice [2]; IV 10 mg/kg on days 1 and 8, Day 8, individual animals): 23 g (2×) and 22 g
- Mortality (death/test) (female NOD/SCID mice [2]; IV 10 mg/kg on days 1 and 8, Day 9): 0/3
- Mortality (death/test) (female NOD/SCID mice [2]; IV 10 mg/kg on days 1 and 8, Day 10): 0/3
- Mortality (death/test) (female NOD/SCID mice [2]; IV 10 mg/kg on days 1 and 8, Day 11): 0/3
- Mortality (death/test) (female NOD/SCID mice [2]; IV 10 mg/kg on days 1 and 8, Day 12): 0/3
- Body Weight (female NOD/SCID mice [2]; IV 10 mg/kg on days 1 and 8, Day 12, individual animals): 24 g (2×) and 23 g
- Mortality (death/test) (female NOD/SCID mice [2]; IV 10 mg/kg on days 1 and 8, Day 13): 0/3
- Mortality (death/test) (female NOD/SCID mice [2]; IV 10 mg/kg on days 1 and 8, Day 14): 0/3
- Mortality (death/test) (female NOD/SCID mice [2]; IV 10 mg/kg on days 1 and 8, Day 15): 0/3
- Body Weight (female NOD/SCID mice [2]; IV 10 mg/kg on days 1 and 8, Day 15, individual animals): 25 g (2×) and 24 g
- gross necropsy (female NOD/SCID mice [2]; both phases): No abnormality was found
- adverse effects (acute toxic symptoms, autonomic effects) (female NOD/SCID mice [3]; 3 and 10 mg/kg IV, 15 minutes, 1 and 2 hours): No significant adverse effects
- Mortality (death/test) (female NOD/SCID mice [3]; IV 3 mg/kg, 15 min): 0/3
- Mortality (death/test) (female NOD/SCID mice [3]; IV 3 mg/kg, 1 hr): 0/3
- Mortality (death/test) (female NOD/SCID mice [3]; IV 3 mg/kg, 2 hr): 0/3
- Mortality (death/test) (female NOD/SCID mice [3]; IV 3 mg/kg, 24 hr): 0/3
- Mortality (death/test) (female NOD/SCID mice [3]; IV 3 mg/kg, 48 hr): 0/3
- Mortality (death/test) (female NOD/SCID mice [3]; IV 3 mg/kg, 72 hr): 0/3
- Body Weight (female NOD/SCID mice [3]; IV 3 mg/kg, 72 hr): 21 g
- Body Weight (female NOD/SCID mice [3]; IV 3 mg/kg, time 0 (pre-dose)): 21 g
- Mortality (death/test) (female NOD/SCID mice [3]; IV 10 mg/kg, 15 min): 0/3
- Mortality (death/test) (female NOD/SCID mice [3]; IV 10 mg/kg, 1 hr): 0/3
- Mortality (death/test) (female NOD/SCID mice [3]; IV 10 mg/kg, 2 hr): 0/3
- Mortality (death/test) (female NOD/SCID mice [3]; IV 10 mg/kg, 24 hr): 0/3
- Mortality (death/test) (female NOD/SCID mice [3]; IV 10 mg/kg, 48 hr): 0/3
- Mortality (death/test) (female NOD/SCID mice [3]; IV 10 mg/kg, 72 hr): 0/3
- Body Weight (female NOD/SCID mice [3]; IV 10 mg/kg, time 0 (pre-dose)): 20 g
- total drug released as MMAE [4]: less than 3%
- total drug released as MMAE ([4]; listed as LHRHD-(mc-vc-PABC)-MMAE): around 3%
- Body Weight (female NOD/SCID mice [5]): 21 g and 20 g (2×)
- total drug released as MMAE [6]: less than 3%
- intracellular uptake (MDA-MB-231): significantly higher uptake

From patent US20220211860A1, “PEPTIDE DERIVATIVES AND CONJUGATES THEREOF FOR TREATING CANCER” (priority 2019, published 2022)
